± gives the uncertainty stated by the source.
B1: F-BAR and double SH3 domains protein 1, residues 467 to 528; numbered along this chain, Q86WN1 (parent)
chain: RALPCPAHVVFRYQAGREDELTITEGEWLEVIEEGDADEWVKARNQHGEVGFVPERYLNFPD

Variants of: B1
Assay: abundance fitness (aPCA) (normalised: wild type 0, dead -1); higher = more abundant; growth selection in yeast, the domain comes from the species named
Details: Homo sapiens

Abundance fitness, by site and new letter:
V41: R -0.526 ± 0.079 | P -0.94 ± 0.2 | Q -0.949 ± 0.18 | S -0.73 ± 0.11 | Y -0.154 ± 0.11 | M -0.199 ± 0.069 | F -0.262 ± 0.085 | G -0.72 ± 0.11 | I -0.353 ± 0.097 | A -0.495 ± 0.081 | C -0.013 ± 0.069 | E -1.12 ± 0.47 | T -0.609 ± 0.15 | K -0.411 ± 0.13 | D -0.815 ± 0.25 | L -0.199 ± 0.048 | H -0.929 ± 0.23 | N -1.01 ± 0.3
A43: N -0.763 ± 0.21 | I -0.297 ± 0.2 | Y -0.914 ± 0.21 | W -0.83 ± 0.15 | L -0.853 ± 0.095 | C -0.038 ± 0.12 | G -0.299 ± 0.078 | H -0.629 ± 0.26 | M -0.548 ± 0.11 | R -0.842 ± 0.15 | P -0.865 ± 0.12 | V -0.056 ± 0.058 | S -0.578 ± 0.079 | Q -0.839 ± 0.16 | D -0.793 ± 0.22 | K -0.71 ± 0.17 | T -0.409 ± 0.1
E34: W -0.074 ± 0.063 | V -0.004 ± 0.062 | Y -0.053 ± 0.14 | T -0.048 ± 0.067
A37: W -0.044 ± 0.064 | P -0.107 ± 0.074 | M 0.018 ± 0.056 | C 0.118 ± 0.13 | Q 0.071 ± 0.068 | R 0.141 ± 0.073 | I -0.026 ± 0.099 | F -0.023 ± 0.12 | G -0.05 ± 0.079 | H -0.005 ± 0.13 | D -0.048 ± 0.13 | V 0.052 ± 0.052 | T 0.014 ± 0.071 | K 0.14 ± 0.06
R44: G -0.898 ± 0.088 | H -0.74 ± 0.14 | L -0.342 ± 0.048 | E -0.268 ± 0.071 | F -0.756 ± 0.09 | I -0.036 ± 0.09 | C -0.178 ± 0.11 | K 0.003 ± 0.09 | M -0.175 ± 0.066
K42: S -0.325 ± 0.058 | D -0.664 ± 0.17 | P -0.974 ± 0.15 | H -0.571 ± 0.14 | Y -0.381 ± 0.15 | R -0.182 ± 0.058 | T -0.076 ± 0.069 | A -0.511 ± 0.086 | N -0.575 ± 0.23 | W -0.181 ± 0.083 | M -0.176 ± 0.057 | F -0.207 ± 0.079 | E -0.496 ± 0.14 | L -0.166 ± 0.044 | C -0.25 ± 0.11 | Q -0.129 ± 0.074 | V -0.105 ± 0.05 | I 0.092 ± 0.085 | G -0.775 ± 0.14
D36: S -0.045 ± 0.053 | R -0.016 ± 0.05 | H 0.033 ± 0.15 | T -0.042 ± 0.065 | L -0.01 ± 0.047 | W 0.006 ± 0.071 | E 0.032 ± 0.072 | C -0.182 ± 0.11 | P 0.13 ± 0.055 | Q 0.073 ± 0.062 | Y -0.171 ± 0.12 | K 0.112 ± 0.075 | G -0.049 ± 0.094 | F 0.005 ± 0.069 | A -0.165 ± 0.077
W40: T -0.101 ± 0.06 | S -0.25 ± 0.05 | I -0.139 ± 0.16 | D 0.028 ± 0.14 | E -0.196 ± 0.09 | C -0.181 ± 0.061 | Y 0.079 ± 0.098 | L -0.134 ± 0.048 | N -0.33 ± 0.15 | K -0.051 ± 0.075 | M 0.037 ± 0.073 | Q -0.122 ± 0.066 | A -0.3 ± 0.076 | V -0.111 ± 0.067 | H -0.01 ± 0.085 | G -0.547 ± 0.07 | R 0.121 ± 0.042
G35: F -0.172 ± 0.11 | C -0.179 ± 0.15 | A -0.045 ± 0.052 | N -0.276 ± 0.11 | E -0.407 ± 0.089 | T 0.063 ± 0.088 | P -0.371 ± 0.079 | S -0.07 ± 0.052 | Y -0.223 ± 0.11 | H -0.409 ± 0.2 | M -0.202 ± 0.08 | L -0.318 ± 0.047 | D -0.211 ± 0.094 | K -0.126 ± 0.07 | I -0.232 ± 0.19 | W -0.332 ± 0.1 | Q -0.379 ± 0.095 | R -0.072 ± 0.056 | V -0.005 ± 0.061
E39: D -0.228 ± 0.094 | V -0.184 ± 0.054 | R 0.017 ± 0.051 | M 0.148 ± 0.071 | C -0.103 ± 0.11 | S 0.028 ± 0.051 | K 0.013 ± 0.072 | A -0.016 ± 0.052 | I -0.1 ± 0.096 | P -0.207 ± 0.067 | G 0.066 ± 0.064 | L -0.146 ± 0.043 | H 0.188 ± 0.1 | Y -0.226 ± 0.097 | W -0.227 ± 0.069 | N 0.227 ± 0.092 | Q -0.027 ± 0.078 | T 0.02 ± 0.055 | F 0.042 ± 0.079
D38: Y -0.122 ± 0.056 | W -0.154 ± 0.071 | R 0.053 ± 0.054 | I -0.066 ± 0.076 | S 0.005 ± 0.045 | H -0.002 ± 0.19 | N -0.017 ± 0.062 | L 0.016 ± 0.044 | M -0.17 ± 0.068 | Q 0.021 ± 0.099 | E 0.101 ± 0.065 | A 0.057 ± 0.045 | C -0.047 ± 0.068 | F -0.127 ± 0.077 | K -0.08 ± 0.091 | G 0.023 ± 0.055
